Data on one molecule can be found in paper PMC10501992, “How Pol α-primase is targeted to replisomes to prime eukaryotic DNA replication” (Molecular Cell, 2023).

For assay [1], the target named is T1, budding yeast CMG (Cdc45-Mcm2-7-GINS) replicative helicase (S. cerevisiae, UniProt Q08032 1-650; P29469 1-868; P24279 1-971; P30665 1-933; P29496 1-775; P53091 …).
T1 construct: Cdc45, S. cerevisiae; Mcm2, S. cerevisiae; Mcm3, S. cerevisiae; Mcm4, S. cerevisiae (named only within Mcm2-7); Mcm5, S. cerevisiae; Mcm6, S. cerevisiae (named only within Mcm2-7); Mcm7, S. cerevisiae (named only within Mcm2-7); Psf1, subunit of GINS, S. cerevisiae; Psf2, subunit of GINS, S. cerevisiae; Sld5, subunit of GINS, S. cerevisiae; source: S. cerevisiae strain yJY197, expressed and …
Briefly: cryo-EM structure; budding yeast replisome: 150 nM CMG on fork DNA (39 nt 3′ flap, 60 nt 5′ flap) with 1.5-fold molar excess of Tof1-Csm3, Mrc1 and Pol α-primase; 25 mM HEPES-NaOH pH 7.6, 150 mM NaOAc, 0.5 mM TCEP, 500 μM AMP-PNP, 10 mM Mg(OAc)2, on ice; 10-30% glycerol gradient with glutaraldehyde and BS3 cross-linkers. The settings on record: both partners purified.

The target of another assay is T2, Tof1 (budding yeast) (S. cerevisiae, UniProt P53840 1-1238).
T2 construct: Tof1, S. cerevisiae; stood in the assay as a subunit of m13; source: subunit of Tof1-Csm3 from S. cerevisiae strain yAE48, purified as described previously
T2 sequence: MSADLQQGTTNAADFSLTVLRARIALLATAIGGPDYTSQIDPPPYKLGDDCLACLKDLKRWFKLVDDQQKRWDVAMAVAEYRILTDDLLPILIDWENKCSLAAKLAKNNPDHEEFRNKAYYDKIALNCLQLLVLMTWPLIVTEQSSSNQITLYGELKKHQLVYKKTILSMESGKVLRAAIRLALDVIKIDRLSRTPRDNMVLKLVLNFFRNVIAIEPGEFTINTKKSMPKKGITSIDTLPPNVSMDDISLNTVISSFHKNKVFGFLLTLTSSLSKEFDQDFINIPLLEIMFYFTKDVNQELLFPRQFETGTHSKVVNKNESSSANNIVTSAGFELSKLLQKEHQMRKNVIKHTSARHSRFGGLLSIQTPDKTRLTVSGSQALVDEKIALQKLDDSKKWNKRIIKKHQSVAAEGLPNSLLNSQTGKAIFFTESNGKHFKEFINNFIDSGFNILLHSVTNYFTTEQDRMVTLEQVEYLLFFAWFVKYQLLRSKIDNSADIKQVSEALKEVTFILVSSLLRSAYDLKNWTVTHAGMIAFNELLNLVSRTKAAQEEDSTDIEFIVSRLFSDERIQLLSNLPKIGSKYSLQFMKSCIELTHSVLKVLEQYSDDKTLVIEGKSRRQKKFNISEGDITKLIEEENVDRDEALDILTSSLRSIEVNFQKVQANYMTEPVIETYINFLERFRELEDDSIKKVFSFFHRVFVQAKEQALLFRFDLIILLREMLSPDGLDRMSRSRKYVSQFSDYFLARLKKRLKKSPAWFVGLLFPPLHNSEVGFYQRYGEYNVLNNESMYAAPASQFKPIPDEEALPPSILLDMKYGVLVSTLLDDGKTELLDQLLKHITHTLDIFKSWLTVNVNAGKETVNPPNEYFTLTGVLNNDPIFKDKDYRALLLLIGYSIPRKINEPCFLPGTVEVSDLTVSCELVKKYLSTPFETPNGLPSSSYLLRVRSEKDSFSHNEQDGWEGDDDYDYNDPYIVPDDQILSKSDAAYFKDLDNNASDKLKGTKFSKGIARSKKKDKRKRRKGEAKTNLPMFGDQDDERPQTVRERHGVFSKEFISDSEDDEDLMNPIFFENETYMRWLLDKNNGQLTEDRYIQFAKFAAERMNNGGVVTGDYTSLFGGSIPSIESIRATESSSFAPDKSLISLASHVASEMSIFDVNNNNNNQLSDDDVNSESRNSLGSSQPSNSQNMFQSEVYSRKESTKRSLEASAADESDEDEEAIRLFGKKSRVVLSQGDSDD
The assay is described as above. The settings on record: both partners purified.

B1: Mrc1 (budding yeast) (natural protein, S. cerevisiae)
chain: MDDALHALSSLTAKKRTTTYKKVAVPILDENDNTNGNGPNDIDNPPELTGNGFLFANATLNRVKNRLEGKKAPEQNHNNGKDRSENSLPTQLISNLYDGGEELEKSEVKDNSYSEKNVSSSFTQTQRIPVSIQQDKVFNVPIHSVNDGKPTQLIKEDGLVNETSQALKTPLTTGRPGATQRIDSSGATSQTQPIKSIEPQSQIITTSSNHSNALSPKIPIIPTELIGTSPLFQSIQNRGPDTQMDVPPQTAHDEDKTQAIGIPQATHQEQKTQIDTVAQTLQDEVPHTLKIREIQSELASEDSKREKARNVEYKKPQKPIPTKKFFSKESFLADFDDSSSNEDDDIKLENAHPKPVQNDDELHENKSVELNLTDETRINEKRVPLLSSYANNLKREIDSSKCITLDLDSDSDEYGDDDMDSIKLSKDESVLPISQLSKATILNLKARLSKQNQKLSQRPNKSKDPKVDHNVLLNTLRKASRKQILDHQKEVIETKGLKLEDMAKEKEIVENLLEQEILRNKRIRQKEKRREKLEENDFQLNAHDSGSDSGSESSGFALSGNEIADYESSGSENDNRRESDSEKEDDEIILKQKKSHHVKHIINESDSDTEVEAKPKEKADESLPKRIAINLGHYGDNIGEDTDKFQETNVLDTQNIEEVMAERNTIENEVKDDVYVNEEADEAIRRQLIDKEKLQLKQKEKEHEAKIKELKKRGVTNFFEMEAEESEDEWHGIGGADGEGSDDYDSDLEKMIDDYSKNNFNPHEIREMLAAENKEMDIKMINKILYDIKNGGFRNKRAKNSLELELSDDDEDDVLQQYRLKRRELMRKRRLEIGDDAKLVKNPKSSAFFESMVEDIIEYKNPFGAEEEYNLDITSTATDLDTQDNSINVGDNTGNNEQKPVDQKNKKVIISEDFVQKSLSFLKSNNYEDFETDKELSRIQHGNDEAIEDLYTLKQNSSIKSFTNSQTDSTTSKTVNTIIDLEKRPEDEDEVENGDTSLVGVFKHPSIIKSFASRTDINDKFKEGNKTVKILKSYKTVGSSKASITYMGKTRKLIAPKRKTEGSHRYHHDHHNKKMKMKTKTKSNKLFESGQDSFDN
notes: Mrc1, S. cerevisiae; several small sections modelled (S339-K323 as printed, D468-Q483, N842-E858); source: S. cerevisiae strain yJY32, expressed and purified as described previously
As to B1, the binding result (in assay [1]; in the assay with Tof1 (budding yeast)) was “binds” in each case.
